Data taken from the supplement of paper PMC5998384.

Columns and labels:
HeLa Kyoto [1] = assay: solubility in G1/S (NP-40 vs SDS abundance) (log2 ratio); higher = more soluble; conditions: cell cycle stage: G1/S
HeLa Kyoto [2] = assay: solubility change mitosis vs G1/S (difference of NP-40 vs SDS log2 ratios) (log2 ratio difference); higher = more soluble in mitosis
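Wherever solubility change mitosis vs G1/S (difference of NP-40 vs SDS log2 ratios) is given: synchronized HeLa Kyoto cells (double thymidine block for G1/S, nocodazole release for mitosis), protein amounts in NP-40 versus SDS lysates quantified by mass spectrometry, three biological replicates.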
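Wherever solubility in G1/S (NP-40 vs SDS abundance) is given: HeLa Kyoto cells arrested at G1/S by double thymidine block, proteins quantified by TMT10plex mass spectrometry in mild NP-40 versus SDS extracts, three biological replicates.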

Sequence | solubility in G1/S (log2) (HeLa Kyoto [1]) | solubility change mitosis (log2) (HeLa Kyoto [2])
MRSLRKKREKPRPEQWKGLPGPPRAPEPEDVAVPGGVDLLTLPQLCFPGGVCVATEPKEDCVHFLVLTDVCGNRTYGVVAQYYRPLHDEYCFYNGKTHRECPGCFVPFAVCVVSRFPYYNSLKDCLSCLLALLKPCKDFEVDSHIKDFAAKLSLIPSPPPGPLHLVFNMKSLQIVLPARADPESPILDLDLHLPLLCFRPEKVLQILTCILTEQRIVFFSSDWALLTLVTECFMAYLYPLQWQHPFVPILSDQMLDFVMAPTSFLMGCHLDHFEEVSKEADGLVLINIDHGSITYSKSTDDNVDIPDVPLLAAQTFIQRVQSLQLHHELHAAHLLSSTDLKEGRAHRRSWQQKLNCQIQQTTLQLLVSIFRDVKNHLNYEHRVFNSEEFLKTRAPGDHQFYKQVLDTYMFHSFLKARLNRRMDAFAQMDLDTQSEEDRINGMLLSPRRPTVEKRASRKSSHLHVTHRRMVVSMPNLQDIAMPELAPRNSSLRLTDTAGCRGSSAVLNVTPKSPYTFKIPEIHFPLESKCVQAYHAHFVSMLSEAMCFLAPDNSLLLARYLYLRGLVYLMQGQLLNALLDFQNLYKTDIRIFPTDLVKRTVESMSAPEWEGAEQAPELMRLISEILDKPHEASKLDDHVKKFKLPKKHMQLGDFMKRVQESGIVKDASIIHRLFEALTVGQEKQIDPETFKDFYNCWKETEAEAQEVSLPWLVMEHLDKNECVCKLSSSVKTNLGVGKIAMTQKRLFLLTEGRPGYLEISTFRNIEEVRRTTTTFLLRRIPTLKIRVASKKEVFEANLKTECDLWHLMVKEMWAGKKLADDHKDPHYVQQALTNVLLMDAVVGTLQSPGAIYAASKLSYFDKMSNEMPMTLPETTLETLKHKINPSAGEAFPQAVDVLLYTPGHLDPAEKVEDAHPKLWCALSEGKVTVFNASSWTIHQHSFKVGTAKVNCMVMADQNQVWVGSEDSVIYIINVHSMSCNKQLTAHCSSVTDLIVQDGQEAPSNVYSCSMDGMVLVWNVSTLQVTSRFQLPRGGLTSIRLHGGRLWCCTGNSIMVMKMNGSLHQELKIEENFKDTSTSFLAFQLLPEEEQLWAACAGRSEVYIWSLKDLAQPPQRVPLEDCSEINCMIRVKKQVWVGSRGLGQGTPKGKIYVIDAERKTVEKELVAHMDTVRTLCSAEDRYVLSGSGREEGKVAIWKGE [DENND3] | -0.339 | -0.197
MSANNSPPSAQKSVLPTAIPAVLPAASPCSSPKTGLSARLSNGSFSAPSLTNSRGSVHTVSFLLQIGLTRESVTIEAQELSLSAVKDLVCSIVYQKFPECGFFGMYDKILLFRHDMNSENILQLITSADEIHEGDLVEVVLSALATVEDFQIRPHTLYVHSYKAPTFCDYCGEMLWGLVRQGLKCEGCGLNYHKRCAFKIPNNCSGVRKRRLSNVSLPGPGLSVPRPLQPEYVALPSEESHVHQEPSKRIPSWSGRPIWMEKMVMCRVKVPHTFAVHSYTRPTICQYCKRLLKGLFRQGMQCKDCKFNCHKRCASKVPRDCLGEVTFNGEPSSLGTDTDIPMDIDNNDINSDSSRGLDDTEEPSPPEDKMFFLDPSDLDVERDEEAVKTISPSTSNNIPLMRVVQSIKHTKRKSSTMVKEGWMVHYTSRDNLRKRHYWRLDSKCLTLFQNESGSKYYKEIPLSEILRISSPRDFTNISQGSNPHCFEIITDTMVYFVGENNGDSSHNPVLAATGVGLDVAQSWEKAIRQALMPVTPQASVCTSPGQGKDHKDLSTSISVSNCQIQENVDISTVYQIFADEVLGSGQFGIVYGGKHRKTGRDVAIKVIDKMRFPTKQESQLRNEVAILQNLHHPGIVNLECMFETPERVFVVMEKLHGDMLEMILSSEKSRLPERITKFMVTQILVALRNLHFKNIVHCDLKPENVLLASAEPFPQVKLCDFGFARIIGEKSFRRSVVGTPAYLAPEVLRSKGYNRSLDMWSVGVIIYVSLSGTFPFNEDEDINDQIQNAAFMYPPNPWREISGEAIDLINNLLQVKMRKRYSVDKSLSHPWLQDYQTWLDLREFETRIGERYITHESDDARWEIHAYTHNLVYPKHFIMAPNPDDMEEDP [PRKD3] | -0.25 | -0.119
MSEIRKDTLKAILLELECHFTWNLLKEDIDLFEVEDTIGQQLEFLTTKSRLALYNLLAYVKHLKGQNKDALECLEQAEEIIQQEHSDKEEVRSLVTWGNYAWVYYHMDQLEEAQKYTGKIGNVCKKLSSPSNYKLECPETDCEKGWALLKFGGKYYQKAKAAFEKALEVEPDNPEFNIGYAITVYRLDDSDREGSVKSFSLGPLRKAVTLNPDNSYIKVFLALKLQDVHAEAEGEKYIEEILDQISSQPYVLRYAAKFYRRKNSWNKALELLKKALEVTPTSSFLHHQMGLCYRAQMIQIKKATHNRPKGKDKLKVDELISSAIFHFKAAMERDSMFAFAYTDLANMYAEGGQYSNAEDIFRKALRLENITDDHKHQIHYHYGRFQEFHRKSENTAIHHYLEALKVKDRSPLRTKLTSALKKLSTKRLCHNALDVQSLSALGFVYKLEGEKRQAAEYYEKAQKIDPENAEFLTALCELRLSI [IFIT5] | 0.129 | 0.0621
